A short description of this data set: Solute release from bonded HPC gel membranes (modified HPLC system). It counts as physicochemical. The method, then: Solute release tests were conducted in the same manner as for PNIPA gels, as described in Example 1. The solute release experiments were designed to model the actual conditions of catheter use, which entail therapeutic solute loading at room temperature (25° C.), insertion of the catheter into the patient at 37° C., and temperature induced enhanced solute release when the catheter is placed at a target location in the body. While the experimental design was generally successful in modeling the actual use of catheter, heat lost to the experimental apparatus tubing reduced the 37° C. test temperature to 33° C. Because the transition temperature of HPC is fairly sharp (in this case, 43° C.), the reduction of test temperature from 37° C. to 33° C. had little impact on the test results.
Solute release experiments were conducted under four constant temperature conditions and three step change conditions. […] Thus, test temperatures below and above the transition temperature of HPC (43° C.) were used. […]

B1: ovalbumin: ovalbumin (M.w. 45,000 Da), model protein for bioactive proteins such as urokinase (protein, UniProt P01012 2-386, looked up)
Ovalbumin: GSIGAASMEFCFDVFKELKVHHANENIFYCPIAIMSALAMVYLGAKDSTRTQINKVVRFDKLPGFGDSIEAQCGTSVNVHSSLRDILNQITKPNDVYSFSLASRLYAEERYPILPEYLQCVKELYRGGLEPINFQTAADQARELINSWVESQTNGIIRNVLQPSSVDSQTAMVLVNAIVFKGLWEKAFKDEDTQAMPFRVTEQESKPVQMMYQIGLFRVASMASEKMKILELPFASGTMSMLVLLPDEVSGLEQLESIINFEKLTEWTSSNVMEERKIKVYLPRMKMEEKYNLTSVLMAMGITDVFSSSANLSGISSAESLKISQAVHAAHAEINEAGREVVGSAEAGVDAASVSEEFRADHPFLFCIKHIATNAVLFFGRCVSP
Take B1: for the setting “HPC gel membrane 0.66 mm, first two minutes at 24° C.”, the “solute released before the temperature change” value is recorded as 11%. The “solute released within the first 7 minutes of the test” value is recorded as “about 30%” (HPC gel membrane 0.66 mm, isothermal 24° C.) and “about 65%” (HPC gel membrane 0.66 mm, step 24° C. to 46° C. after about two minutes). The “solute released in the five minutes immediately after the temperature change” value (HPC gel membrane 0.66 mm, step 24° C. to 46° C.) came out at 54%. The “ratio of the area of the convective pulse to the area of the isothermal release curve” value (triggered release from HPC gel) is “much greater for ovalbumin than for methyl orange or estradiol”.

The record behind these values is patent publication US7407671B2, “Temperature controlled solute delivery system” (Boston Scientific Scimed, Inc., priority 1998, dated 2008).
